Assay results reported in patent publication US20070036781A1.

Assays:
[1] = target: T1, short form of human CCRL2 (CRAM-B) (human) (UniProt O00421); assay: cell-based or functional assay
T1 sequence: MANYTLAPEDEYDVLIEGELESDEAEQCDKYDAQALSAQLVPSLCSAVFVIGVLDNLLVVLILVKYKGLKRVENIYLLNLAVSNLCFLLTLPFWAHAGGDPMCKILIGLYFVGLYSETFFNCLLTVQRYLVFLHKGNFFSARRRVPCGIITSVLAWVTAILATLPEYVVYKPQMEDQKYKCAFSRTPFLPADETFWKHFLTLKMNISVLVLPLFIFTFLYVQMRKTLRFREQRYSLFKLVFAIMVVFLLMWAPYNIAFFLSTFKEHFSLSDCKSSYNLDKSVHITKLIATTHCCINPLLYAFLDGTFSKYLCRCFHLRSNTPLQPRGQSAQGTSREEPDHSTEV

[2] = target: Corticotropin Releasing Factor Receptor (CRFR), CRF-R1 (UniProt P34998); assay: cell-based or functional assay
Sequence of UniProt P34998 (P34998 24-415 limits assumed): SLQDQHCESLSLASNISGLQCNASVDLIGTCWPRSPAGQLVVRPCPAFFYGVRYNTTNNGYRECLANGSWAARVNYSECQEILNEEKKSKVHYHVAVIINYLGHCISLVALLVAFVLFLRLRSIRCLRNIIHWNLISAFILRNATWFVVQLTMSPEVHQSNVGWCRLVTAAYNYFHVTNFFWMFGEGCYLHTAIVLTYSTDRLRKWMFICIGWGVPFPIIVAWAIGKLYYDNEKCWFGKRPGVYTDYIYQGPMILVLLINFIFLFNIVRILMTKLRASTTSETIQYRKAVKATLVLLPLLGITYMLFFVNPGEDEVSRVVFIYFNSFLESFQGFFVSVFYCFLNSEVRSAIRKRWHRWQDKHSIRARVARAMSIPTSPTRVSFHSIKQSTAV

Monocyte chemotactic protein-3 (MCP-3) (from UniProt P80098 24-99) (ligand)
LacZ activity, Gi2-transplant yeast, 10^-6 M ligand [1]: 2.2 LacZ units
chemotaxis of CCRL2 transfected cells, 10 nM chemokine; more cells passing across the membrane than untreated cells [1]: 35%

Monocyte chemotactic protein-1 (MCP-1) (from UniProt P13500 24-99) (ligand)
LacZ activity, Gq-transplant yeast, 10^-6 M ligand [1]: 5.7 LacZ units

B1: macrophage inflammatory protein-4 (MIP-4) (ligand)
chain: AQVGTNKELCCLVYTSWQIPQKFIVDYSETSPQCPKPGVILLTKRGRQICADPNKKWVQKYISDLKLNA
LacZ activity, Gi3-transplant yeast, 10^-6 M ligand [1]: 6.5 LacZ units
chemotaxis of CCRL2 transfected cells, 10 nM chemokine; more cells passing across the membrane than untreated cells [1]: 35%

B2: Corticotrophin releasing factor (CRF) (peptide, UniProt P06850 154-194, looked up)
peptide: SEEPPISLDLTFHLLREVLEMARAEQLAQQAHSNRKLMEII
LacZ activity, Gi2-transplant yeast, 10^-6 M ligand [2]: 6.4 LacZ units
LacZ activity, Gi3-transplant yeast, 10^-6 M ligand [2]: 17.2 LacZ units

B3: Urocortin (peptide, UniProt P55089 83-122, looked up)
peptide: DNPSLSIDLTFHLLRTLLELARTQSQRERAEQNRIIFDSV
LacZ activity, Gq-transplant yeast, 10^-6 M ligand [2]: 6.9 LacZ units
